Consider 3 molecules from patent US20230192820A1 (published 2023).

In assay [1] the target is SARS-CoV-2 spike (S) protein on virus or pseudovirus particles (SARS-CoV-2, UniProt P0DTC2 14-1273). The assay can be described thus: cell-based or functional assay.
Assay [2] deals with SARS-CoV-2 S protein S1 subunit (amino acids 1-604), Myc/His tagged (SARS-CoV-2, UniProt P0DTC2 14-604).
Assay [3] concerns the target SARS-CoV-2 S protein RBD (amino acids 319-541) (SARS-CoV-2, UniProt P0DTC2 319-541).
The target of assay [4] is SARS-CoV S protein RBD (amino acids 270-510) (SARS-CoV (Urbani strain), UniProt P59594 270-510).

B1: MAb362 (antibody, V domains shown)
VH: QVQLVESGGGVVQPGRSLRLSCAASGFSFSSYGMHWVRQAPGKGLEWVAVIWYDGSDKYYADSVKGRFTISRDNSKNTLYLQLNSLRAEDTAIYYCARERYFDWIFDFWGQGTLVTVSS
VL: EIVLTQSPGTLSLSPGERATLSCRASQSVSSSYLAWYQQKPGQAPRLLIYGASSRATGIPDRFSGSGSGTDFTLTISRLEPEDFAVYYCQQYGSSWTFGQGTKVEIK
In general, EC50 refers to the concentration at which the effect is half-maximal. Read a high EC50 as a less potent agent. Turning to B1, the “plaque reduction neutralization test (PRNT), EC50” value in assay [1] was ~5 µg/mL. Further, the EC50 in assay [2] was ~40 nM.

B2: MAb362 IgG1 (antibody, V domains shown)
VH: B1 VH
VL: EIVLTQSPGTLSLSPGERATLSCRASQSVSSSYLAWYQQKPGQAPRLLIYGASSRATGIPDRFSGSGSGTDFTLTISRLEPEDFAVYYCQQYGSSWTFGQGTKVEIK
For orientation: Kd means the free concentration of one partner at which half of the binding sites on the other are occupied at equilibrium, for simple one-to-one binding. The low end stands for tighter binding, the high end for weaker binding. On to B2, for which the “neutralization of SARS-CoV-2 pseudovirus, IC50” value in assay [1] was 58.7 µg/mL. Further, the dissociation constant (Kd) worked out at 13 nM in assay [3] and 1.3 nM in assay [4].

B3: MAb362 IgA1 (monomeric) (antibody, V domains shown)
VH: B1 VH
VL: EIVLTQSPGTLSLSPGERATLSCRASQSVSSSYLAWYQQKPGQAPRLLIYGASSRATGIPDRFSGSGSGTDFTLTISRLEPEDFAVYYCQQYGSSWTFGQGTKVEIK
As for B3, the “neutralization of SARS-CoV-2 pseudovirus, IC50” value in assay [1] amounted to 1.26 µg/mL. In addition, the equilibrium dissociation constant (Kd) in assay [3] came out at 0.3 nM; in assay [4], 1.4 nM.
